According to article PMC9321335, “Palmitic Acid-Conjugated Radiopharmaceutical for Integrin αvβ3-Targeted Radionuclide Therapy” (Pharmaceutics, 2022):
Like-named read-outs stand apart in the source and are kept apart here.

Columns and labels:
[1] = reportedly; cited from earlier work
Source text: Albumin makes up approximately 55–60% of serum proteins, and its biological half-life is reportedly 19 days, which makes it possible to leverage the long circulation half-life of albumin to produce long-acting therapeutics.

[2] = cited from earlier work
Source text: This may be caused by several factors: first, palmitic acid can reversibly bind to albumin to prolong the blood retention time and reduce the elimination of peptides; second, ^177Lu-palm-3PRGD2 is amphiphilic and may self-assemble to form tiny nanoparticles (possibly nanospheres or nanofibers) with larger molecular sizes, resulting in lo ...

in vivo = details: C57BL/6, mouse, 0.74 MBq, total radioactivity
Protocol: (§1) Mice bearing MC38 xenografts were randomly divided into 10 groups (n = 4). The mice in five groups were administered 0.74 MBq/20 µCi of ^177Lu-Palm-3PRGD2 and sacrificed at 1, 4, 12, 24, and 72 h p.i. The mice on one group was injected with 0.74 MBq/20 µCi of ^177Lu-Palm-3PRGD2 and 500 μg (242 nmol) 3PRGD2 as a blocking agent and sacrificed at 1 h p.i. […] Tumors and major organs were harvested, weighed and measured for radioactivity using a γ-counter. The organ uptake was calculated as the percentage injected activity per gram (%IA/g). The effective absorbed dose in humans estimated from mouse biodistribution data by using a dedicated software (OLINDA 1.0).

[3] = set-up: species or system C57BL/6 mice; details: mouse, in vivo
Protocol: Female KM mice were randomly divided into three groups (n = 5). […] Blood samples obtained from the canthus vein were collected at different time points post injection (p.i.), weighed, and evaluated using a γ-counter. The results are presented as the percentage injected activity per gram (%IA/g). Nonlinear regression (curve fit) followed by two phase decay was performed using GraphPad Prism version 9.0.0 for Windows, GraphPad Software, San Diego, CA, USA, www.graphpad.com (accessed on 22 May 2022). And then the half-lives values were calculated and determined. Blood clearance studies were performed in normal KM mice. […] Blood clearance studies were also performed in C57BL/6 mice.

physchem = assay type: physicochemical
Protocol: Briefly, the radiopharmaceuticals were prepared and purified with Sep-Pak-C18 cartridges and then dissolved in a mixed solution of 5 mL n-octanol and 5 mL PBS. After vortexing for 1 h, the mixture was centrifuged at 10,000 rpm for 10 min. Samples (100 μL, n = 4) from the n-octanol and PBS components were collected and counted using a γ-counter. The […] were calculated as the logarithm of the n-octanol/PBS ratio.

[4] = set-up: species or system KM mice; details: mouse, in vivo, iv
Protocol: Female KM mice were randomly divided into three groups (n = 5). […] Blood samples obtained from the canthus vein were collected at different time points post injection (p.i.), weighed, and evaluated using a γ-counter. The results are presented as the percentage injected activity per gram (%IA/g). Nonlinear regression (curve fit) followed by two phase decay was performed using GraphPad Prism version 9.0.0 for Windows, GraphPad Software, San Diego, CA, USA, www.graphpad.com (accessed on 22 May 2022). And then the half-lives values were calculated and determined.

MC38 tumor-bearing mice = assay: in vivo; details: mouse
Protocol: as §1

[5] = Tumor-to-tissue ratio, Intestine

Albumin
Biological half-life [1]: 19 days

N=C(N)NCCC[C@@H]1NC(=O)[C@H](CCCCNC(=O)CCOCCOCCOCCOCCNC(=O)CC[C@H](NC(=O)CCOCCOCCOCCOCCNC(=O)CN2CCN(CC(=O)O)CCN(CC(=O)O)CCN(CC(=O)O)CC2)C(=O)NCCOCCOCCOCCOCCC(=O)NCCCC[C@@H]2NC(=O)[C@@H](Cc3ccccc3)NC(=O)[C@H](CC(=O)O)NC(=O)CNC(=O)[C@H](CCCNC(=N)N)NC2=O)NC(=O)[C@@H](Cc2ccccc2)NC(=O)[C@H](CC(=O)O)NC(=O)CNC1=O [^177Lu-3PRGD2, [^177Lu]Lu-DOTA-3PRGD2, metal not drawn]
Effective absorbed dose [2]: 1.35 × 10^−2 mSv/MBq | tissue uptake at 4 h (in vivo; Blood uptake): 0.42 ± 0.26 %ID/g | tissue uptake at 12 h (in vivo; Blood uptake): 0.32 %ID/g | tissue uptake at 4 h (in vivo; Bone uptake): 1.41 %ID/g | tissue uptake at 12 h (in vivo; Bone uptake): 1.46 %ID/g | tissue uptake at 4 h (in vivo; Brain uptake): 0.09 %ID/g | tissue uptake at 12 h (in vivo; Brain uptake): 0.11 %ID/g | tissue uptake at 4 h (in vivo; Heart uptake): 0.75 %ID/g | tissue uptake at 12 h (in vivo; Heart uptake): 0.63 %ID/g | tissue uptake at 4 h (in vivo; Intestine uptake): 9.85 %ID/g | tissue uptake at 12 h (in vivo; Intestine uptake): 7.97 %ID/g | tissue uptake at 12 h (in vivo; Kidney uptake): 4.48 %ID/g | tissue uptake at 4 h (in vivo; Liver uptake): 2.95 %ID/g | tissue uptake at 12 h (in vivo; Liver uptake): 1.93 %ID/g | tissue uptake at 4 h (in vivo; Lung uptake): 1.73 %ID/g | tissue uptake at 12 h (in vivo; Lung uptake): 1.46 %ID/g | tissue uptake at 4 h (in vivo; Muscle uptake): 0.52 %ID/g | tissue uptake at 12 h (in vivo; Muscle uptake): 0.64 %ID/g | tissue uptake at 4 h (in vivo; Spleen uptake): 2.65 %ID/g | tissue uptake at 12 h (in vivo; Spleen uptake): 1.89 %ID/g | tissue uptake at 4 h (in vivo; Stomach uptake): 2.96 %ID/g | tissue uptake at 12 h (in vivo; Stomach uptake): 2.39 %ID/g | tissue uptake at 4 h (in vivo; Tumor uptake): 6.22 %ID/g | tissue uptake at 12 h (in vivo; Tumor uptake): 4.11 %ID/g | tissue to tissue ratio at 4 h (in vivo; Tumor-to-tissue ratio, Blood): 20.3 | tissue to tissue ratio at 12 h (in vivo; Tumor-to-tissue ratio, Blood): 14.2 | tissue to tissue ratio at 4 h (in vivo; Tumor-to-tissue ratio, Bone): 4.41 | tissue to tissue ratio at 12 h (in vivo; Tumor-to-tissue ratio, Bone): 2.82 | tissue to tissue ratio at 4 h (in vivo; Tumor-to-tissue ratio, Brain): 68.7 | tissue to tissue ratio at 12 h (in vivo; Tumor-to-tissue ratio, Brain): 39.9 | tissue to tissue ratio at 4 h (in vivo; Tumor-to-tissue ratio, Heart): 8.31 | tissue to tissue ratio at 12 h (in vivo; Tumor-to-tissue ratio, Heart): 6.53 | tissue to tissue ratio at 4 h (in vivo; [5]): 0.66 | tissue to tissue ratio at 12 h (in vivo; [5]): 0.52 | tissue to tissue ratio at 4 h (in vivo; Tumor-to-tissue ratio, Liver): 2.11 | tissue to tissue ratio at 12 h (in vivo; Tumor-to-tissue ratio, Liver): 2.13 | tissue to tissue ratio at 4 h (in vivo; Tumor-to-tissue ratio, Lung): 3.6 | tissue to tissue ratio at 12 h (in vivo; Tumor-to-tissue ratio, Lung): 2.84 | tissue to tissue ratio at 4 h (in vivo; Tumor-to-tissue ratio, Muscle): 12 | tissue to tissue ratio at 12 h (in vivo; Tumor-to-tissue ratio, Muscle): 6.6 | tissue to tissue ratio at 4 h (in vivo; Tumor-to-tissue ratio, Spleen): 2.36 | tissue to tissue ratio at 12 h (in vivo; Tumor-to-tissue ratio, Spleen): 2.22 | tissue to tissue ratio at 4 h (in vivo; Tumor-to-tissue ratio, Stomach): 2.1 | tissue to tissue ratio at 12 h (in vivo; Tumor-to-tissue ratio, Stomach): 1.72 | tissue to tissue ratio at 4 h (in vivo; in vivo): 1.27 | tissue to tissue ratio at 12 h (in vivo; in vivo): 0.92 | Half-Life (T1/2α) [3]: 1.06 min | Half-Life (T1/2β) [3]: 14.54 min | logD (physchem): -4.05 ± 0.14 | Half-Life (T1/2α) [4]: 1.94 min | Half-Life (T1/2β) [4]: 11.81 min

CCCCCCCCCCCCCCCC(=O)N[C@@H](CCC(=O)NCCCC[C@H](NC(=O)CN1CCN(CC(=O)O)CCN(CC(=O)O)CCN(CC(=O)O)CC1)C(=O)O)C(=O)O [^177Lu-Palm, [^177Lu]Lu-DOTA-Palm, metal not drawn]
Tumor-to-tissue ratio, Brain (MC38 tumor-bearing mice): 14.69 | Half-Life (T1/2α) [4]: 3.33 min | Half-Life (T1/2β) [4]: 29.82 min
